ECL signal data for seven molecules are collected here from patent publication US20120058906A1 (published 2012).

Test [1] addresses T1, Recombinant Human DLL4 (R&D Systems Cat#1506-D4/CF) (human, UniProt Q9NR61 27-524).
T1 construct: Bought protein; also called delta-like protein 4; rHuman DLL4
Nature of the test: MSD ECL multi-spot assay, antigen spotted on plate, Fab 0.51 uM; blank spot 1393.

In test [2] the target is T2, rHuman HGF R/c-MET/Fc Chimera, CF (R&D Systems Cat#358-MT/CF) (human, UniProt P08581 25-932).
T2 construct: Bought protein; also called HGF R/Fc; hepatocyte growth factor receptor; Fc part of the bought chimera not given
The test is described as above.

Test [3] concerns the target T3, rHuman ErbB2/Fc Chimera, CF (R&D Systems Cat#1129-ER) (human, UniProt P04626 23-652).
T3 construct: Bought protein; also called HER2/neu; human epidermal growth factor 2 receptor; Fc part of the bought chimera not given
Described as above.

For test [4], the target named is T4, rHuman CD44/Fc Chimera, CF (R&D Systems Cat#3660-CD) (human, UniProt P16070 21-220).
T4 construct: Bought protein; Fc part of the bought chimera not given
The test is described as above.

Test [5] deals with T5, rHuman IGF-1 sR (IGF-1 sR), CF (R&D Systems Cat#391-GR) (human, UniProt P08069 31-932).
T5 construct: Bought soluble receptor; also called insulin-like growth factor-1 soluble receptor; IGF-R1
The description is as above.

For test [6], the target named is T1, Recombinant Human DLL4 (R&D Systems …). As to the kind of experiment: MSD ECL multi-spot assay, antigen spotted on plate, Fab 0.13 uM; blank spot 786.
The target of test [7] is T6, rHuman Erythropoietin R/Fc Chimera, CF (R&D Systems Cat#963-ER) (human, UniProt P19235 25-250).
T6 construct: Bought protein; also called EPOR; EPO R/Fc; Fc part of the bought chimera not given
T6 sequence: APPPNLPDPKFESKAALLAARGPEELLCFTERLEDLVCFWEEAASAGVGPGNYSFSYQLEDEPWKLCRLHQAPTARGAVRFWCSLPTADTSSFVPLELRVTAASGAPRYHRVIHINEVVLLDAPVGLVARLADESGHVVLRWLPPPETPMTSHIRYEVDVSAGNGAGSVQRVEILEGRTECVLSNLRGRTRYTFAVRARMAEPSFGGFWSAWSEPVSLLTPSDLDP
The description is as above.

Test [8] addresses T2, rHuman HGF R/c-MET/Fc Chimera, CF (R&D …). The description is as above.
Test [9] has as its target T3, rHuman ErbB2/Fc Chimera, CF (R&D …). The description is as above.
Test [10] has as its target T4, rHuman CD44/Fc Chimera, CF (R&D Systems …). The test is described as above.
Test [11] concerns the target T5, rHuman IGF-1 sR (IGF-1 sR), CF (R&D …). The description is as above.
Test [12] has as its target T7, rHuman Notch-1/Fc Chimera, CF (R&D Systems Cat#3647-TK) (human, UniProt P46531 19-526).
T7 construct: Bought protein; Fc part of the bought chimera not given
Described as above.

For test [13], the target named is T8, rHuman EGF R/Fc Chimera, CF (R&D Systems Cat#344-ER) (human, UniProt P00533 25-645).
T8 construct: Bought protein; also called epidermal growth factor receptor; Fc part of the bought chimera not given
Described as above.

The target of test [14] is T1, Recombinant Human DLL4 (R&D Systems …). Nature of the test: MSD ECL multi-spot assay, antigen spotted on plate, Fab 1.19 uM; blank spot 11543.
Test [15] concerns the target T6, rHuman Erythropoietin R/Fc Chimera, CF …. The test is described as above.
Test [16] has as its target T9, rHuman P-Cadherin/Fc Chimera, CF (R&D Systems Cat#861-PC) (human, UniProt P22223 108-654).
T9 construct: Bought protein; also called CDH3; Fc part of the bought chimera not given
The test is described as above.

The target in test [17] is T5, rHuman IGF-1 sR (IGF-1 sR), CF (R&D …). The description is as above.
The target of test [18] is T7, rHuman Notch-1/Fc Chimera, CF (R&D …). The description is as above.
For test [19], the target named is T8, rHuman EGF R/Fc Chimera, CF (R&D …). The description is as above.
The target of test [20] is T1, Recombinant Human DLL4 (R&D Systems …). As to the kind of experiment: MSD ECL multi-spot assay, antigen spotted on plate, Fab 0.48 uM; blank spot 2877.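 Note: blank spot per well as comparator with Hit at signal to blank ratio of 4 or more.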
Test [21] has as its target T7, rHuman Notch-1/Fc Chimera, CF (R&D …). The description is as above.
The target in test [22] is T9, rHuman P-Cadherin/Fc Chimera, CF (R&D …). As to the kind of experiment: MSD ECL multi-spot assay, antigen spotted on plate, Fab 0.28 uM; blank spot 1773.
Test [23] has as its target T1, Recombinant Human DLL4 (R&D Systems …). Nature of the test: MSD ECL multi-spot assay, antigen spotted on plate, Fab 0.06 uM; blank spot 842.
The target in test [24] is T3, rHuman ErbB2/Fc Chimera, CF (R&D …). The test is described as above.
For test [25], the target named is T4, rHuman CD44/Fc Chimera, CF (R&D Systems …). The description is as above.
The target in test [26] is T5, rHuman IGF-1 sR (IGF-1 sR), CF (R&D …). Described as above.
In test [27] the target is T6, rHuman Erythropoietin R/Fc Chimera, CF …. As to the kind of experiment: MSD ECL multi-spot assay, antigen spotted on plate, Fab 0.93 uM; blank spot 4760.
Test [28] deals with T5, rHuman IGF-1 sR (IGF-1 sR), CF (R&D …). Described as above.
Test [29] addresses T7, rHuman Notch-1/Fc Chimera, CF (R&D …). The test is described as above.

B1: Fab VH4-34_IGHD7-27*01_IGHJ4*01 & L5_IGKJ1*01 (Fab, V domains shown)
VH: QVQLQQWGAGLLKPSETLSLTCAVYGGSFSGYYWSWIRQPPGKGLEWIGEINHSGSTNYNPSLKSRVTISVDTSKNQFSLKLSSVTAADTAVYYCARANWGDYFDYWGQGTLVTVSS
VL: DIQMTQSPSSVSASVGDRVTITCRASQGISSWLAWYQQKPGKAPKLLIYAASSLQSGVPSRFSGSGSGTDFTLTISSLQPEDFATYYCQQANSFPPWTFGQGTKVEIKR
notes: Fab from E. coli; VH joined to the CH1 (Flag and His tags) of Plasmid A, VL to the kappa CL of Plasmid C
With B1, the ECL signal in test [1] worked out at 5650; in [2], 1740; in [3], 1700; in test [4], 1880; in [5], 1740.

B2: Fab VH1-8_IGHD2-2*01_IGHJ6*01 & L12_IGKJ1*01 (Fab, V domains shown)
VH: QVQLVQSGAEVKKPGASVKVSCKASGYTFTSYDINWVRQATGQGLEWMGWMNPNSGNTGYAQKFQGRVTMTRNTSISTAYMELSSLRSEDTAVYYCARGGYCSSTSCYADYYYYYGMDVWGQGTTVTVSS
VL: not shown
With B2, the ECL signal in [6] came out at 9850; in [7], 1110; in test [8] it was 969; in test [9] it was 840; in test [10] it was 932; in [11], 1170. Also, the ECL signal in test [12] is 1320; in test [13], 859.

B3: Fab VH1-46_IGHD6-13*01_IGHJ4*01 & L2_IGKJ1*01 (Fab, V domains shown)
VH: QVQLVQSGAEVKKPGASVKVSCKASGYTFTSYYMHWVRQAPGQGLEWMGIINPSGGSTSYAQKFQGRVTMTRDTSTSTVYMELSSLRSEDTAVYYCAREGYSSSWYDYFDYWGQGTLVTVSS
VL: not shown
For B3, the ECL signal was 39600 in test [14]; 141000 in test [15]; 34600 in [16]; 14100 in test [17]; 41700 in test [18]; 32000 in [19].

B4: Fab VH1-46_IGHD6-13*01_IGHJ4*01 & A27_IGKJ1*01 (Fab, V domains shown)
VH: B3 VH
VL: not shown
notes: as for B1
Consider B4, for which the values for the ECL signal in [20] and in test [21] were 13700 and 12800, respectively.

B5: Fab VH1-46_IGHD2-15*01_IGHJ2*01 & L12_IGKJ1*01 (Fab, V domains shown)
VH: QVQLVQSGAEVKKPGASVKVSCKASGYTFTSYYMHWVRQAPGQGLEWMGIINPSGGSTSYAQKFQGRVTMTRDTSTSTVYMELSSLRSEDTAVYYCAREGYCSGGSCYSYWYFDLWGRGTLVTVSS
VL: not shown
For the molecule B5, the ECL signal in test [22] was determined as 8060.

B6: Fab VH1-3_IGHD4-23*01_IGHJ4*01 & L12_IGKJ1*01 (Fab, V domains shown)
VH: QVQLVQSGAEVKKPGASVKVSCKASGYTFTSYAMHWVRQAPGQRLEWMGWSNAGNGNTKYSQEFQGRVTITRDTSASTAYMELSSLRSEDMAVYYCARDDYGGNSDYFDYWGQGTLVTVSS
VL: not shown
For B6, the ECL signal in test [23] amounted to 13600; in [24], 1570; in test [25], 1680; in test [26] it was 2320.

B7: Fab VH1-46_IGHD3-10*01_IGHJ4*01 & L12_IGKJ1*01 (Fab, V domains shown)
VH: QVQLVQSGAEVKKPGASVKVSCKASGYTFTSYYMHWVRQAPGQGLEWMGIINPSGGSTSYAQKFQGRVTMTRDTSTSTVYMELSSLRSEDTAVYYCAREYYYGSGSYYNDYFDYWGQGTLVTVSS
VL: not shown
Regarding B7, the ECL signal in test [27] came to 16700; in [28] it was 13900; in [29] it was 23700.
